Source: US20090263836A1

Biological target: iBoNT/A (protease inactive version of BoNT/A) (Clostridium botulinum)
Assay: SPR (BIAcore), […] ([…] to […])

| Substance | Kd [nM] |
| --- | --- |
| sFGFR3 (loop 2 and 3 of the extra cellular domain of FGFR3) (receptor) | 10 |
| SV2C529-566 (luminal part of SV2C) (peptide) | 5000 |
